From patent CN116819103A

Target: 大熊猫TSHβ亚基特异序列多肽片段TSHβ-2 (大熊猫 (giant panda))
Experiment: indirect ELISA, peptide TSHβ-2 coated at 2 μg/mL, HRP goat anti-mouse, OD450

Chain of 大熊猫TSHβ亚基特异序列多肽片段TSHβ-2 (大熊猫 (giant panda)) (peptide, as listed by the source): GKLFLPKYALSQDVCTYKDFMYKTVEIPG

- 效价 (ELISA titer) (fold dilution): > 1e+06
B1: 大熊猫TSHβ单克隆抗体 (杂交瘤细胞株TSHB-B, CCTCC NO: C202283) (antibody, IgG1, V domains shown)
VH: EVKLVESGGGLVKPGGSLKLSCAASGFSFSRYAMSWVRHAPENRLEWVAAISRGGNLYYRDSVKGRFTISRDDARNILYLQMSSLRSEDTAMYYCTRDDYDEDWYFDVWGAGTTVTVSS
VL: DVLMTQTPLSLPVSLGEQASISCRSSQIIVHSNGNTYLEWYLQKPGQSPKLLIYKVSNRFSGVPDRFSGSGSGTDFTLKISRVEAEDLGVYYCFHGSHIPPTFGGGTKLEIK
